A value given as a limit tells only on which side of the number the result lay.

The source of these data is patent US5861377A, “Antistasin type serine protease inhibitors” (Novartis AG, priority 1994, dated 1999).

For data set [1], the target named is Subtilisin. Briefly: Inhibition of amidolytic activity of serine proteinases: subtilisin. It is filed as biochemical. The conditions noted are these: Bact. subt. subtilisin; inhibitor 1.3 mM. The procedure: (§1) To determine the specificity of hirustasin, its effect on the amidolytic activity of various serine proteinases (see Tab. 3) is determined. Therefore, proteinases are incubated with the inhibitor (1.3 mM) for 15 and for 30 min, and the residual enzyme activities are measured after addition of a suitable substrate. Equilibrium dissociation constants (Ki) for the complexes of hirustasin with individual proteases are determined essentially as described by Bieth (Bull. Europ. Physopat. Resp. (1980), 16, 183-195). Briefly, increasing concentrations of the inhibitor are incubated with a constant concentration of the enzyme; the time necessary to reach equilibration of the enzyme-inhibitor complex is determined for each protease in preliminary experiments. Substrate is then added and the residual enzyme activity measured. Apparent Ki -values are calculated by fitting the steady state velocities to the equation for tight binding inhibitors (Morrison, Biochem. Biophys. Acta (1969), 185, 269-286) using non-linear regression analysis.

Data set [2] addresses T1, Thrombin (Homo sapiens, UniProt P00734).
T1 construct: the other proteinases tested including human α-thrombin and factor Xa
As to the kind of experiment: Inhibition of amidolytic activity of serine proteinases: thrombin. Format: biochemical. On the set-up: effect on proteinase activity: dose or concentration left out as unconfirmed. On the procedure:
as §1, with “(1.3 mM)” left out

The target in data set [3] is Urokinase (Homo sapiens, UniProt P00749). Briefly: Inhibition of amidolytic activity of serine proteinases: urokinase. It is filed as biochemical. The conditions noted are these: inhibitor 1.3 mM. The procedure: as §1
Data set [4] relates to blood coagulation cascade. As to the kind of experiment: Blood coagulation cascade in vitro (general statement). The procedure: (§2) To determine whether hirustasin inhibits the blood coagulation in vitro, its effect on the prothrombin time and the partial thromboplastin time is measured using an Amelung KC10 coagulometer (Lemgo, Germany) and the reagent sets from Behringwerke AG (Marburg, Germany) according to the guidelines of the manufacturers.

The target of data set [5] is Factor Xa (Homo sapiens, UniProt P00742). As to the kind of experiment: Inhibition of amidolytic activity of serine proteinases: factor Xa. It is filed as biochemical. Also noted: effect on proteinase activity: dose or concentration left out as unconfirmed. The procedure:
as §1, with “(1.3 mM)” left out

Data set [6] concerns the target T2, Leukocyte elastase (Homo sapiens, UniProt P08246).
T2 sequence (P08246 30-267): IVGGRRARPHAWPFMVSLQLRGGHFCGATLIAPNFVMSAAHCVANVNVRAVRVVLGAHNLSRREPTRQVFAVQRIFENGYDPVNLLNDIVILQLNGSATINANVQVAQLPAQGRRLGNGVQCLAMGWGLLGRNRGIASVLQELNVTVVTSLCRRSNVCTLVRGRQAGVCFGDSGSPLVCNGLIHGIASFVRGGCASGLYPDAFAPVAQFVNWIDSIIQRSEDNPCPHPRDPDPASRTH
Briefly: Inhibition of amidolytic activity of serine proteinases: leukocyte elastase. It is filed as biochemical. The conditions noted are these: inhibitor 1.3 mM. On the procedure: as §1

Data set [7] deals with Chymase. As to the kind of experiment: Inhibition of amidolytic activity of serine proteinases: chymase. Format: biochemical. The conditions noted are these: porcine chymase; inhibitor 1.3 mM. On the procedure: as §1
Data set [8] deals with Plasma kallikrein (Homo sapiens, UniProt P03952). As to the kind of experiment: Inhibition of amidolytic activity of serine proteinases: plasma kallikrein. It is filed as biochemical. The conditions noted are these: inhibitor 1.3 mM. The procedure: as §1
Data set [9] deals with prothrombin time. Briefly: In vitro blood coagulation: prothrombin time (Quick). On the procedure: as §2
Data set [10] deals with partial thromboplastin time. As to the kind of experiment: In vitro blood coagulation: partial thromboplastin time. The procedure:
as §2

The target in data set [11] is Pancreatic elastase (Sus scrofa, UniProt P00772). Briefly: Inhibition of amidolytic activity of serine proteinases: pancreatic elastase. Format: biochemical. The conditions noted are these: porcine pancreatic elastase; inhibitor 1.3 mM. The procedure: as §1
Data set [12] has as its target T3, trypsin (Bos taurus, UniProt P00760).
T3 sequence (P00760 24-246): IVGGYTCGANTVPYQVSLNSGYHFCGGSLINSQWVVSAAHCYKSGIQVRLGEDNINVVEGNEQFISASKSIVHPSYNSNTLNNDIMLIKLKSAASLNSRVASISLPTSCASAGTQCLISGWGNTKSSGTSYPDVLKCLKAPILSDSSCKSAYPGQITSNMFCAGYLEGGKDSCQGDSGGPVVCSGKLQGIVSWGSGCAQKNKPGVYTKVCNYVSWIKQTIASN
As to the kind of experiment: Inhibitory activity during purification: amidolytic activity of trypsin. Format: biochemical. The conditions noted are these: trypsin inhibition; fraction of the isolation step. On the procedure:
During the purification procedure inhibitory activity is assayed by measuring the inhibition of the amidolytic activities of trypsin and chymotrypsin. Samples are incubated with trypsin (225 nM) in 50 mM Tris/HCl (pH 7.8), 0.1% (mass/vol) Triton X-100, for 12 min at 25° C. The assay is started by addition of the substrate benzoyl-L-argininep-nitroanilide (0.4 mM, final concentration). The released nitroaniline is monitored photometrically at 405 nm for 3.5 min using an UVIKON 930® photometer (Kontron; Eching, Germany).
(§3) One inhibition unit (IU) is defined as the amount of inhibitor which reduces the substrate hydrolysis by 1 mmol per min.

Data set [13] addresses chymotrypsin (Bos taurus, UniProt P00766). Briefly: Inhibitory activity during purification: amidolytic activity of chymotrypsin. Format: biochemical. The settings on record: chymotrypsin inhibition; fraction of the isolation step.
Text: as §3

Sequence of Factor Xa (P00742 235-488 limits assumed): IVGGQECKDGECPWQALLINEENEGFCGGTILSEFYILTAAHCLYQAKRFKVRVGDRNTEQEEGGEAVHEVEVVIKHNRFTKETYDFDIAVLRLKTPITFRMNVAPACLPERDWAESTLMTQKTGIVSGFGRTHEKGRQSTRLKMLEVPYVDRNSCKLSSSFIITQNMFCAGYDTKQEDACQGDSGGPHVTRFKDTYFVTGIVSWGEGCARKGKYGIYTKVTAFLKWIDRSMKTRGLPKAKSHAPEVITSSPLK
Sequence of Factor Xa (P00742 41-179 partner limits assumed): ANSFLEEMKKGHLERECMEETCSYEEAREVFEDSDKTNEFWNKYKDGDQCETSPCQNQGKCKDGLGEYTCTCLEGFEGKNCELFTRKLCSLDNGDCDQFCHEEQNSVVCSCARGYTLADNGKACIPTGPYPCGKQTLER
Sequence of Pancreatic elastase (P00772 27-266): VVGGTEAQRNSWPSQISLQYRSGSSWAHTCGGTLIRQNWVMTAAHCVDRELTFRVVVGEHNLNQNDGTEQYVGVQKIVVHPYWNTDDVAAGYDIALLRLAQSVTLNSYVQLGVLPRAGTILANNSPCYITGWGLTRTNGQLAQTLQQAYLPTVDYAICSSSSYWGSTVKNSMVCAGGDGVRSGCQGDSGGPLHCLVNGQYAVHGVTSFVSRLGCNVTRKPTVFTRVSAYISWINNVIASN
Sequence of Plasma kallikrein (P03952 391-638 limits assumed): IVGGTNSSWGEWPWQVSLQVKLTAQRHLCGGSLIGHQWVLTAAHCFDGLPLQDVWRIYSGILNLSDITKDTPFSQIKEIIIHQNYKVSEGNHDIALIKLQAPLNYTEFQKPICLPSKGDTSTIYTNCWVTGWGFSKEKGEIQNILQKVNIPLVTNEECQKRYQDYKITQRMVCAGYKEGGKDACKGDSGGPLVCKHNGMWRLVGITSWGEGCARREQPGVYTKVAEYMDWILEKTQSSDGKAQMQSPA
Sequence of Plasma kallikrein (P03952 20-390 partner limits assumed): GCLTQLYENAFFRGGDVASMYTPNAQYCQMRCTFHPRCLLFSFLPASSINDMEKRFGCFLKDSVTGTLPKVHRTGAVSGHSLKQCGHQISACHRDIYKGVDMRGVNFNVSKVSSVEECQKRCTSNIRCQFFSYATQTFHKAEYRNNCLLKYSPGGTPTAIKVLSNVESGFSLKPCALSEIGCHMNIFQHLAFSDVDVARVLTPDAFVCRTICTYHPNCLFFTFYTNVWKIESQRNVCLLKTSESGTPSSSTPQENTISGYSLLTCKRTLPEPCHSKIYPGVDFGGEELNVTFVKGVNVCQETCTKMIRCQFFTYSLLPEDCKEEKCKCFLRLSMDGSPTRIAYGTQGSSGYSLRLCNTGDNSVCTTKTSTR

On to “Hirustasin: polypeptide of SEQ ID NO:1, antistasin-type serine proteinase inhibitor isolated from the medical leech Hirudo medicinalis (TQGNTCGGETCSAAQVCLKGKCVCNEVHCRIRCKYGLKKDENGCEYPCSCAKASQ)”, for which the Ki in data set [1] was > 1300 nM; in [2] (human thrombin, inhibitor 1.3 mM), > 1300 nM; in data set [3] it was > 1300 nM; in data set [5] (human factor Xa, inhibitor 1.3 mM), > 1300 nM; in [6], > 1300 nM; in data set [7], > 1300 nM. For the same substance, the Ki in data set [8] and in data set [11] was > 1300 nM in each case. The “effect on proteinase activity” value is recorded as “no effect” in data set [2] (human α-thrombin, highest concentration used) and “no effect” in data set [5] (factor Xa, highest concentration used). The “effect on blood coagulation cascade in vitro” value in [4] is recorded as “neither affects”. The “effect on catalytic activity of isolated factor Xa” value in data set [5] (isolated factor Xa) is “neither affects”. In addition, the “effect on prothrombin time” value in data set [9] (concentration of 1.3 mM) is “no significant effect”. The substance also gave a Quick in [9] (hirustasin 1.3 mM, buffer control 79%) of 80%. The “effect on partial thromboplastin time” value in [10] (concentration of 1.3 mM) is listed as “no significant effect”. For the same substance, the “Partial Thromboplastin Time” value in data set [10] (hirustasin 1.3 mM, buffer control 47.3 s) was determined as 47.9 s.
With “Mono S ®: pooled Mono S fractions, the finally isolated hirustasin (TQGNTCGGETCSAAQVCLKGKCVCNEVHCRIRCKYGLKKDENGCEYPCSCAKASQ; UniProt P80302 1-55, looked up)”, in data set [12], the “Trypsin SA [IU/mg] (specific activity)” value is reported as 2.7 IU/mg. Also, the “Chymotrypsin SA [IU/mg] (specific activity)” value in data set [13] amounted to 0.15 IU/mg.

The Ki is a dissociation constant, usually derived from enzyme kinetics or from competition with a known ligand.
